Test results from patent US8796201B2 (The Board of Trustees of the Leland Stanford Junior …, priority 2002, dated 2014).

B1: MX PEP: novel recombinant prolyl endopeptidase from Myxococcus xanthus (Genbank AF127082, SEQ ID NO:47) (protein, listed as Myxococcus xanthus)
chain: MSYPATRAEQVVDTLHGVQVADPYRWLEDEKAPEVQTWMTAQNAHAREALAKFPGREALAARFKELFYTDSVSTPSRRNGRFFYVRTHKDKEKAILYWRQGESGQEKVLLDPNGWSKDGTVSLGTWAVSWDGKKVAFAQKPNAADEAVLHVIDVDSGEWSKVDVIEGGKYATPKWTPDSKGFYYEWLPTDPSIKVDERPGYTTIRYHTLGTEPSKDTVVHERTGDPTTFLQSDLSRDGKYLFVYILRGWSENDVYWKRPGEKDFRLLVKGVGAKYEVHAWKDRFYVLTDEGAPRQRVFEVDPAKPARASWKEIVPEDSSASLLSVSIVGGHLSLEYLKDATSEVRVATLKGKPVRTVQLPGVGAASNLMGLEDLDDAYYVFTSFTTPRQIYKTSVSTGKSELWAKVDVPMNPEQYQVEQVFYASKDGTKVPMFVVHRKDLKRDGNAPTLLYGYGGFNVNMEANFRSSILPWLDAGGVYAVANLRGGGEYGKAWHDAGRLDKKQNVFDDFHAAAEYLVQQKYTQPKRLAIYGGSNGGLLVGAAMTQRPELYGAVVCAVPLLDMVRYHLFGSGRTWIPEYGTAEKPEDFKTLHAYSPYHHVRPDVRYPALLMMAADHDDRVDPMHARKFVAAVQNSPGNPATALLRIEANAGHGGADQVAKAIESSVDLYSFLFQVLDVQGAQGGVAAQGR
B2: PEP: prolyl endopeptidase; Examples 1-2: from Flavobacterium meningosepticum (US Biological); Example 11: source not stated (protein, UniProt P27028 21-705, looked up)
Prolyl endopeptidase: QNSNVLKYPETKKVSHTDTYFGTQVSDPYRWLEDDRAEDTKAWVQQEVKFTQDYLAQIPFRDQLKKQLMDIWNYEKISAPFKKGKYTYFSKNDGLQAQSVLYRKDAAGKTEVFLDPNKFSEKGTTSLASVSFNKKGTLVAYSISEGGSDWNKIIILDAETKKQLDETLLDVKFSGISWLGDEGFFYSSYDKPKEGSVLSGMTDKHKVYFHKLGTKQSQDELIIGGDKFPRRYIGAYVTDDQRYLVVSAANATNGNELYIKDLKNKTDFIPIITGFDSNVNVADTDGDTLYLFTDKDAPNKRLVKTTIQNPKAETWKDVIAETSEPLEINTGGGYFFATYMKDAIDQVKQYDKNGKLVRAIKLPGSGNASGFGGEKTEKDLYYSFTNYITPPTIFKYNVTTGNSEVYQKPKVKFNPENYVSEQVFYTSSDGTKIPMMISYKKGLKKDGKNPTILYSYGGFNISLQPAFSVVNAIWMENGGIYAVPNIRGGGEYGKKWHDAGTKMQKKNVFNDFIAAGEYLQKNGYTSKEYMALSGRSNGGLLVGATMTMRPDLAKVAFPGVGVLDMLRYNKFTAGAGWAYDYGTAEDSKEMFEYLKSYSPVHNVKAGTCYPSTMVITSDHDDRVVPAHSFKFGSELQAKQSCKNPILIRIETNAGHGAGRSTEQVVAENADLLSFALYEMGIKSLK
B3: FM PEP: recombinant prolyl endopeptidase from Flavobacterium meningosepticum (Genbank D10980) (protein)
chain: B2 Prolyl endopeptidase

Tests used:
[1] = tested on: pepsin; experiment: Gastric protease stability; assay type: in vitro ADME; conditions: 1 mg/ml pepsin, pH 2
Description: FIG. 9. Resistance of the FM PEP and the MX PEP to inactivation by gastric and pancreatic enzymes. Pancreatic enzyme stability was evaluated by treating 5 U/ml of the FM PEP and the MX PEP with 1 mg/ml trypsin, 1 mg/ml chymotrypsin, 0.2 mg/ml elastase and 0.2 mg/ml carboxypeptidase A (40 mM phosphate, pH=6.5). Pepsin stability was tested by treating the FM PEP and the MX PEP (5 U/ml) with 1 mg/ml pepsin (pH=2, 20 mM HCl).
Gastric and Pancreatic Protease Stability. […] Absorption was measured at 410 nm for 1 to 2 min every 10 s to assay residual activity. […] Enzyme activities are expressed as a percentage of the maximum activity, typically observed at the zero time point.
PEP Stability. […] We therefore evaluated the extent to which the activity of each PEP remains intact after 10 min of incubation at selected pH values between 1.6 and 3.9. […] Since therapeutic efficacy would require a PEP to act upon gluten in conjunction with pancreatic proteases that are secreted into the duodenum, the resistance of FM PEP and MX PEP toward both gastric and pancreatic enzymes was evaluated. For this we pre-incubated the enzymes with physiological quantities of either pepsin (at pH 2) or a cocktail comprising of trypsin, chymotrypsin, elastase and carboxypeptidase A (at pH 6.5).

[2] = Double-blind crossover gluten challenge: daily symptom questionnaire; assay type: in vivo, human (Celiac Sprue patients); conditions: PEP Stage, 20 patients
Description: Subjects and protocols: This study was approved by the Institutional Review Board of the Palo Alto Medical Foundation in Palo Alto, Calif., and all participants in the study were counseled regarding risks and signed an informed consent document. 22 patients were recruited who were in symptomatic remission on a gluten-free diet. Two patients dropped out of the study, one near the end of the first stage and the other prior to the second stage. The 20 patients who completed the study included 7 men and […] aged 21 to 78 (mean age 49). The time since diagnosis for the 20 patients ranged from 3 months to 18 years (mean 6 years). […] The serum anti-gliadin IgA antibodies and anti-tissue transglutaminase IgA and IgG antibodies were measured by an enzyme linked immunosorbent assay (ELISA) kit (INOVA Diagnostics, Inc., San Diego, Calif.). […] Total serum IgA levels were determined by an Integra instrument (Roche) (normal <81 mg/dl). […] The 25 g D-xylose 5-hour urine excretion test and the 72-hour quantitative fecal fat test were measured at baseline and on Day 15. […] For the 72 h quantitative fecal fat test, patients were instructed to consume a diet containing 80-100 g fat per day during the collection. The fecal fat excretion was determined by a gravimetric method. […]

[3] = Allergenicity of the denatured protein; design: species or system rodents, rabbits and humans; conditions: in vivo

| Molecule | resistance to pepsin [1] | average Total Stage Symptom Score (sum of the 14 daily symptom scores) [2] | allergenicity of the denatured protein [3] |
| --- | --- | --- | --- |
| B1 | highly susceptible to pepsin catalyzed proteolysis |  |  |
| B2 |  | 23 (range 4 to 82) |  |
| B3 | highly susceptible to pepsin catalyzed proteolysis |  | non-allergenic in rodents, rabbits and humans |
